Reference: US20060166324, “Screening tools for discovery of novel anabolic agents” (USA as represented by the Dept. of Veterans Affairs, published 2006)

Experiments:
[1] = system: Androgen receptor (full length) (Homo sapiens); assay: cell_activity; conditions: HepG2 luciferase reporter, testosterone
[2] = system: Glucocorticoid receptor (Rattus norvegicus); assay: cell_activity; conditions: HepG2 luciferase reporter, dexamethasone
[3] = target: T1, Androgen receptor DNA-binding domain (Homo sapiens, UniProt P10275 P10275:560-632); assay: EMSA; band consistently weaker than SRE; greatly diminished by excess cold SRE; conditions: tags: GST fusion (pGEX 4T-1 hAR2, E. coli BL21); label: 32P
Excerpt: (§1) In order to more directly test whether the AR bound to sequences with ARE1 and ARE2, binding of a GST-tagged version of recombinant AR DNA-binding domain to radiolabeled probes was examined using electrophoretic mobility shift assays.

[4] = target: T1, Androgen receptor DNA-binding domain; assay: EMSA; strong band, greatly diminished by excess unlabeled probe; conditions: tags: GST fusion (pGEX 4T-1 hAR2, E. coli BL21); label: 32P
Excerpt: as §1

[5] = target: T1, Androgen receptor DNA-binding domain; assay: EMSA; band weaker than SRE; diminished by excess cold SRE; conditions: tags: GST fusion (pGEX 4T-1 hAR2, E. coli BL21); label: 32P
Excerpt: as §1

T1 sequence (P10275 560-632, one chain of several): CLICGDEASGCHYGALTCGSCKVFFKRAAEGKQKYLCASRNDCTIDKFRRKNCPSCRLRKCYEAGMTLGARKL

pGL3-13a IGF-1 promoter insert -1370 to -1250 (ARE2)
activity (fold induction) [1]: > 20
activity (fold induction) [2]: 5

pGL3-22 IGF-1 promoter insert -1508 to -1402 (ARE1)
activity (fold induction) [1]: > 5
activity (fold induction) [2]: < 2

pGL3-32 IGF-1 promoter insert -1429 to -1250 (ARE1 and ARE2)
activity (fold induction) ([1]; 25-fold plateau in FIG. 15): 30
activity (fold induction) [2]: 5

B1: IGF-1 ARE2 probe (dsDNA)
DNA 1: TTGTAGTTGGGCACATAGTAGAGCTCA
DNA 2: TGAGCTCTACTATGTGCCCAACTACAA
binding result [3]: binds

B2: consensus SRE probe (dsDNA)
DNA 1: ATGCATTGGGTACATCTTGTTCACATA
DNA 2: TATGTGAACAAGATGTACCCAATGCAT
binding result [4]: binds

B3: IGF-1 ARE1 probe (dsDNA)
DNA 1: GACTTGACCATATCTTATTCCTCTTTG
DNA 2: CAAAGAGGAATAAGATATGGTCAAGTC
binding result [5]: binds
